In the supplement of paper PMC10724198:
± gives the standard deviation of the averaged measurements.

Tested on: Saccharomyces cerevisiae
Test: protein stability index of tFT-peptide fusion (C-terminal peptide) (PSI (0-1 scale)); higher = more stable (slower turnover)
Conditions: temperature: 30 C
Procedure: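 MPS profiling in S. cerevisiae of the yeast C-terminome library: the last 12 aa of each annotated ORF are fused to the C-terminus of a sfGFP-mCherry timer, after a GGGS linker. Cells are FACS-sorted into 8 mCherry/sfGFP bins and deep-sequenced. PSI runs from 0 (unstable) to 1 (stable); wild type and das1Δ backgrounds, two technical replicates each.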

[1] = genetic background: das1 deletion

Sequence | protein stability index [1] | protein stability index (genetic background: wild type)
IRLLTYLLRKIE [YLR230W C-terminal 12 aa] | 0.654 ± 0.033 | 0.351 ± 0.023
IKSVHVDLSLDK [ALD3 C-terminal 12 aa] | 0.717 ± 0.022 | 0.704 ± 0.043
KHPRPFRQEHRC [YLR162W C-terminal 12 aa] | 0.6986 ± 0.0027 | 0.6577 ± 0.0057
FCTVAKIIQCFL [YDR396W C-terminal 12 aa] | 0.5838 ± 0.0053 | 0.4942 ± 0.0047
EILGTDEPTVRT [PGM1 C-terminal 12 aa] | 0.693 ± 0.015 | 0.7 ± 0.014
GVETLLDIFMKF [ARG82 C-terminal 12 aa] | 0.74146 ± 0.00055 | 0.706 ± 0.02
FWNCVDGHLKYD [INM1 C-terminal 12 aa] | 0.724 ± 0.0075 | 0.715 ± 0.043
TFAKSSRNKSKL [PCS60 C-terminal 12 aa] | 0.835 ± 0.011 | 0.811 ± 0.073
RREATRISDLLK [FMS1 C-terminal 12 aa] | 0.695 ± 0.014 | 0.703 ± 0.06
FHLRHHKGAEEH [ATP17 C-terminal 12 aa] | 0.7076 ± 0.0039 | 0.678 ± 0.019
KQNIPRKPNVDI [BNS1 C-terminal 12 aa] | 0.6875 ± 0.0057 | 0.677 ± 0.018
DKRNLLEILDFS [RRT13 C-terminal 12 aa] | 0.72 ± 0.021 | 0.695 ± 0.029
VESKFTEKIKSM [RPC19 C-terminal 12 aa] | 0.6704 ± 0.0024 | 0.559 ± 0.027
KELEPVPPVSKS [OMS1 C-terminal 12 aa] | 0.7006 ± 0.007 | 0.671 ± 0.01
AIFLFLVGLFMK [UBC6 C-terminal 12 aa] | 0.289 ± 0.011 | 0.297 ± 0.017
MLYTSYQSIFGV [AVT4 C-terminal 12 aa] | 0.707 ± 0.015 | 0.706 ± 0.0086
KDEPVKAHNKLK [SAS5 C-terminal 12 aa] | 0.693 ± 0.011 | 0.654 ± 0.023
ARTKRLVQFEAR [RPC10 C-terminal 12 aa] | 0.6826 ± 0.0044 | 0.7169 ± 0.007
RWHIQRITSPLS [STP22 C-terminal 12 aa] | 0.74 ± 0.048 | 0.719 ± 0.028
EKPKKKEVEKTA [NOG2 C-terminal 12 aa] | 0.684 ± 0.012 | 0.688 ± 0.018
SQDDSILSSDPF [NIS1 C-terminal 12 aa] | 0.715 ± 0.015 | 0.666 ± 0.014

Sequence | protein stability index [1] | protein stability index (genetic background: wild type)
VHKDLDIKTVTL [PRO2 C-terminal 12 aa] | 0.691 ± 0.013 | 0.671 ± 0.0073
DNFINSVKLNFR [SEC10 C-terminal 12 aa] | 0.6945 ± 0.0052 | 0.734 ± 0.022
LSKDGIYTAIPK [PAU15 C-terminal 12 aa] | 0.685 ± 0.025 | 0.767 ± 0.12
NTFTEHNSNIYY [SPT10 C-terminal 12 aa] | 0.704 ± 0.021 | 0.706 ± 0.029
SLLGIQKSVRNL [MDM20 C-terminal 12 aa] | 0.691 ± 0.056 | 0.6654 ± 0.006
VISYLLGADIHF [SMF3 C-terminal 12 aa] | 0.712 ± 0.013 | 0.7135 ± 0.0039
SVFIAAVAAMLI [CCW14 C-terminal 12 aa] | 0.603 ± 0.013 | 0.586 ± 0.016
ISNLPECLGNLC [ANR2 C-terminal 12 aa] | 0.6968 ± 0.0047 | 0.6926 ± 0.006
GLLFDKKKKARK [NOP19 C-terminal 12 aa] | 0.687 ± 0.012 | 0.691 ± 0.043
RVKILHRDDTKK [UPF3 C-terminal 12 aa] | 0.707 ± 0.024 | 0.732 ± 0.093
CRESNLKLIVSG [ARR2 C-terminal 12 aa] | 0.6753 ± 0.002 | 0.712 ± 0.016
PAAVFAETLKHD [RPL4B C-terminal 12 aa] | 0.686 ± 0.016 | 0.705 ± 0.011
GYYQRRNKRKRA [UTP20 C-terminal 12 aa] | 0.749 ± 0.012 | 0.69 ± 0.046
VDIALYLTRSQT [YGR039W C-terminal 12 aa] | 0.699 ± 0.017 | 0.694 ± 0.011
SCRTTPQVRARA [YLR279W C-terminal 12 aa] | 0.6944 ± 0.0046 | 0.6946 ± 0.0043
KGCYKLCKNLLE [KEI1 C-terminal 12 aa] | 0.686 ± 0.013 | 0.696 ± 0.043
LEEFLVRGTNNQ [ATP25 C-terminal 12 aa] | 0.711 ± 0.018 | 0.663 ± 0.012
VYSIESRVLGHN [OAC1 C-terminal 12 aa] | 0.679 ± 0.015 | 0.676 ± 0.055
NDQNKNKQNAKR [YIL156W-A C-terminal 12 aa] | 0.7078 ± 0.0055 | 0.639 ± 0.011
TLKKIFSKRSIS [YCL049C C-terminal 12 aa] | 0.722 ± 0.02 | 0.4651 ± 0.0019
ANLVYMKADVFC [HTD2 C-terminal 12 aa] | 0.581 ± 0.012 | 0.61 ± 0.066

Sequence | protein stability index [1] | protein stability index (genetic background: wild type)
RLYDRINGKPHD [MRP10 C-terminal 12 aa] | 0.671 ± 0.014 | 0.668 ± 0.021
WRFLGIVKSPNT [YDR510C-A C-terminal 12 aa] | 0.6815 ± 0.0017 | 0.693 ± 0.013
FSNAGVEMQIRK [GNA1 C-terminal 12 aa] | 0.702 ± 0.0064 | 0.736 ± 0.04
RRDYWLSKGQAL [TRF5 C-terminal 12 aa] | 0.7173 ± 0.0032 | 0.725 ± 0.032
ISIEELAQYLKK [RIB3 C-terminal 12 aa] | 0.70628 ± 0.00065 | 0.672 ± 0.049
RYKILDLIISKL [UTP6 C-terminal 12 aa] | 0.789 ± 0.042 | 0.683 ± 0.04
GWEVLSVYSFTR [MTQ2 C-terminal 12 aa] | 0.727 ± 0.042 | 0.737 ± 0.098
VDFLSKKLLKLR [YFL041W-A C-terminal 12 aa] | 0.694 ± 0.0088 | 0.708 ± 0.0078
SEIVDISQLPPG [ILV6 C-terminal 12 aa] | 0.6812 ± 0.0022 | 0.7033 ± 0.0062
HETMVNGSKRRL [DIF1 C-terminal 12 aa] | 0.686 ± 0.014 | 0.639 ± 0.014
SKIPSSLYIYHM [YGL042C C-terminal 12 aa] | 0.7073 ± 0.0067 | 0.619 ± 0.04
NNQPHYRDQLLQ [REI1 C-terminal 12 aa] | 0.6976 ± 0.0028 | 0.706 ± 0.048
LVDIITGASSLG [ATP3 C-terminal 12 aa] | 0.6894 ± 0.004 | 0.719 ± 0.041
SMGNYYKSFFSM [OMA1 C-terminal 12 aa] | 0.704 ± 0.02 | 0.6294 ± 0.0025
EFSTLFDDYKDN [YRR1 C-terminal 12 aa] | 0.7429 ± 0.0055 | 0.767 ± 0.022
AKKTNKLALTHV [SEC26 C-terminal 12 aa] | 0.7167 ± 0.0064 | 0.718 ± 0.038
NKYMNEMLEYMQ [NUF2 C-terminal 12 aa] | 0.715 ± 0.0072 | 0.719 ± 0.085
VILYRSVMKLSP [YOR073W-A C-terminal 12 aa] | 0.646 ± 0.011 | 0.66 ± 0.017
FVKPGEICLREQ [RDH54 C-terminal 12 aa] | 0.712 ± 0.039 | 0.701 ± 0.014
PGTRGRVASKFL [MIM1 C-terminal 12 aa] | 0.7098 ± 0.0037 | 0.705 ± 0.0099
LEEPYKPQRQRC [YPL088W C-terminal 12 aa] | 0.6798 ± 0.0049 | 0.718 ± 0.0087

Sequence | protein stability index [1] | protein stability index (genetic background: wild type)
DKLGFLDRRRNE [COI1 C-terminal 12 aa] | 0.683 ± 0.036 | 0.668 ± 0.043
KGFQFGLGLAFL [SAM50 C-terminal 12 aa] | 0.736 ± 0.034 | 0.69 ± 0.019
GYCFEFTLYNRK [DFR1 C-terminal 12 aa] | 0.7243 ± 0.0021 | 0.688 ± 0.013
DEDLWEEQEVCP [YGR017W C-terminal 12 aa] | 0.702 ± 0.0037 | 0.709 ± 0.011
NEMRERLRALQN [VPS24 C-terminal 12 aa] | 0.668 ± 0.011 | 0.685 ± 0.054
SAQDSDIDLQDA [MCM7 C-terminal 12 aa] | 0.695 ± 0.0088 | 0.682 ± 0.031
DLEDEIEMEDVV [TFG2 C-terminal 12 aa] | 0.699 ± 0.027 | 0.711 ± 0.046
KNEDSEVEDDLI [CUS2 C-terminal 12 aa] | 0.703 ± 0.042 | 0.67 ± 0.0098
RVAVIEDDEDED [LEO1 C-terminal 12 aa] | 0.688 ± 0.0068 | 0.692 ± 0.021
FTFGTPIFLQLL [YFR010W-A C-terminal 12 aa] | 0.653 ± 0.025 | 0.579 ± 0.1
GEGGHFVIKKIS [DIT1 C-terminal 12 aa] | 0.6854 ± 0.0056 | 0.20324 ± 5.1e-05
HQDSAKYTHYYL [YER158C C-terminal 12 aa] | 0.696 ± 0.016 | 0.652 ± 0.0081
KLYILKHLGSKQ [RRG9 C-terminal 12 aa] | 0.681 ± 0.037 | 0.685 ± 0.019
MFNQGKVEEMDF [SML1 C-terminal 12 aa] | 0.7189 ± 0.0047 | 0.692 ± 0.017
KVHRKKVPGCTI [YGR011W C-terminal 12 aa] | 0.697 ± 0.015 | 0.686 ± 0.029
GRGAISYSDITI [PEP5 C-terminal 12 aa] | 0.707 ± 0.018 | 0.69 ± 0.0077
EYEPFVMYIINL [VMA5 C-terminal 12 aa] | 0.6058 ± 0.001 | 0.545 ± 0.0069
GKKLVQEAFRIV [YPL039W C-terminal 12 aa] | 0.715 ± 0.019 | 0.675 ± 0.035
EDYAYWGNRQLY [PER1 C-terminal 12 aa] | 0.7133 ± 0.0036 | 0.743 ± 0.038
